In patent US20040248232:

Columns and labels:
[1] = tested on: Z★Val-Lys-Met-MCA substrate
[2] = tested on: APP substrate Ser-Glu-Val-Lys-Met-Asp-Ala-Glu-Phe

Sequence of Peak I β-secretase endoprotease activity from bovine chromaffin vesicles, identified as bovine cathepsin L (27 kDa cysteine protease band) (chain, as listed by the source): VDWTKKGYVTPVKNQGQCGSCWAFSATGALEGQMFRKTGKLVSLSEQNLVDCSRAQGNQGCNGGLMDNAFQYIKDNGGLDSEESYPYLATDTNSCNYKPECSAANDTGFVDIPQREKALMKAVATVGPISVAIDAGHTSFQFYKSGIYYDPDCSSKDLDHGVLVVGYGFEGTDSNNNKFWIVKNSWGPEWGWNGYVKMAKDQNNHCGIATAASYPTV

Substance	cleavage of the Z★Val-Lys-Met-MCA substrate, products analyzed by EMS [1]	cleavage of the APP substrate, products analyzed by EMS [2]	fluorescent MCA released by cleavage of the substrate [1]
Peak I β-secretase endoprotease activity from bovine chromaffin vesicles, identified as bovine cathepsin L (27 kDa cysteine protease band)	the Peak I activity cleaved the Lys-Met bond in the Z★Val-Lys-Met-MCA substrate	the majority of Peak I activity cleaved the Lys-Met bond	
Peak II-A β-secretase endoprotease activity from bovine chromaffin vesicles, identified as bovine cathepsin B (31 kDa cysteine protease band)		the majority of the Peaks II-A and II-B activities cleaved the Met-Asp bond	the majority of the endoprotease activity in Peak II-A and Peak II-B cleaved the β-secretase scissile bond
Peak II-B β-secretase endoprotease activity from bovine chromaffin vesicles, identified as bovine cathepsin B (31 kDa cysteine protease band)		the majority of the Peaks II-A and II-B activities cleaved the Met-Asp bond	the majority of the endoprotease activity in Peak II-A and Peak II-B cleaved the β-secretase scissile bond
